Ends that are not written are not given here. * marks the point of attachment. Fc = ferrocene monocarboxylic acid coupled as acyl group on the N-terminus, O=C([c-]1cccc1)*.[Fe+2].c1cc[cH-]c1
Target: amyloid beta peptide Aβ(1–42) (UniProt P05067 672-713)
Assay: differential pulse voltammetry of the ferrocene tag

t1/2 at [Fc-KLVFFK6]:[Aβ(1–42)] 1:0.25: 1.29 h
t1/2 at [Fc-KLVFFK6]:[Aβ(1–42)] 1:0.5: 1.35 h
t1/2 at [Fc-KLVFFK6]:[Aβ(1–42)] 1:1: 1.53 h
t1/2 at [Fc-KLVFFK6]:[Aβ(1–42)] 1:2: 1.13 h
t1/2 at [Fc-KLVFFK6]:[Aβ(1–42)] 1:4: 1.02 h
Binder: Fc-KLVFFKKKKKK [ferrocene-tagged β-sheet breaker peptide Fc-KLVFFK6]

— paper PMC3565064 (Analytical biochemistry, 2012)
